Data: PMC8265641, “Enterococcal PrgU Provides Additional Regulation of Pheromone-Inducible Conjugative Plasmids”

What was measured:
[1] = target: PrgU-His (PrgU with C-terminal His tag) (Enterococcus faecalis (plasmid pCF10)); experiment: SEC-MALS; 200 ul PrgU-His at 1 mg/ml on Superdex 200 10/300 GL Increase, 20 mM potassium phosphate pH 7.0, 150 mM NaCl; self-association, dimer
[2] = target: PrgU-His (PrgU with C-terminal His tag) (Enterococcus faecalis (plasmid pCF10)); experiment: GEMMA (gas-phase electrophoretic mobility macromolecule analysis); main SEC peak of PrgU-His diluted to 0.01 mg/ml in 20 mM ammonium acetate, pH 7.8; self-association, dimer and monomer
[3] = target: PrgU-His (Enterococcus faecalis plasmid pCF10, UniProt Q5G3Q2 1-118); experiment: MST; MST: 20 mM KPi pH 7.0, 150 mM NaCl, 0.05% Tween 20, 0.1 U/ul RNase inhibitor, ~25 C; EMSA: 20 min at ~25 C, 1% agarose run at 4 C, buffer as previously described (not given); conditions: protein: recombinant, tags: C-terminal 10xHis with 3C protease site

Molecule: PrgU-His (PrgU with C-terminal His tag) (natural protein)
- stoichiometry N [1]: 2
- stoichiometry N [2]: 2

B1: IRS1 RNA (structured_RNA)
RNA: GGAGCAGCGGGGAAUGUAUACAGUUCAUGUAUAUGUUCCCCGCUUUUUUUG
- binding result ([3]; hairpin): no binding

B2: IRS1 ssDNA (ssDNA)
DNA: GGAGCAGCGGGGAATGTATACAGTTCATGTATATGTTCCCCGCTTTTTTTG
- binding result [3]: no binding

B3: IRS1 dsDNA (dsDNA)
DNA 1: B2 DNA
DNA 2: CAAAAAAAGCGGGGAACATATACATGAACTGTATACATTCCCCGCTGCTCC
- binding result ([3]; blunt): no binding

B4: IRS2 RNA (structured_RNA)
RNA: ACUCGUAAGAGCCGUGCAAACAACGUGUUGCAUGGCUCUUUUUCUAC
- binding result ([3]; hairpin): no binding

B5: IRS2 ssDNA (ssDNA)
DNA: ACTCGTAAGAGCCGTGCAAACAACGTGTTGCATGGCTCTTTTTCTAC
- binding result [3]: no binding

B6: IRS2 dsDNA (dsDNA)
DNA 1: B5 DNA
DNA 2: GTAGAAAAAGAGCCATGCAACACGTTGTTTGCACGGCTCTTACGAGT
- binding result ([3]; blunt): no binding
